A short description of the data set: protein stability index of a GFP-peptide fusion (GPS, HEK-293T) (PSI 1-6); higher = more stable. Particulars: c terminus: a fixed tail appended.

± gives the standard deviation.
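Further: 24-mer peptide tiles fused after GFP, lentivirally expressed, FACS-sorted into six equal bins by GFP/DsRed ratio, decoded by Illumina sequencing, PSI is the read-weighted mean bin number.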

Consider NSALKDKEDQFGRTPLMYCVLADR [INVS], for which the protein stability index was found to be 3.37 ± 0.4 (treatment: DMSO) and 3.23 ± 0.37 (treatment: MLN4924 1 uM, 8 h).

As to LKKFLYNFDNPWNFQNIPKETELP [MIA2], the protein stability index (treatment: DMSO) stood at 3.061 ± 0.006 and the protein stability index (treatment: MLN4924 1 uM, 8 h) was determined as 2.66 ± 0.41.

As to KFYPPDPAQLSEDITRYYLCLQLR [EPB41L3], the protein stability index was 2.49 ± 0.048 (treatment: DMSO) and 2.48 ± 0.87 (treatment: MLN4924 1 uM, 8 h).

TLLQDHENQRLFEMLGRKCLTLAT [WAS]: the protein stability index runs as follows: (treatment: DMSO) 2.37 ± 0.29; (treatment: MLN4924 1 uM, 8 h) 2.33 ± 0.28.

Turning to LLTIGDANGEIQRHAEQQALRLEV [CARM1], the protein stability index was 3.53 ± 0.27 (treatment: DMSO) and 3.71 ± 0.11 (treatment: MLN4924 1 uM, 8 h).

GDTLRTFSLVLVLDLSKPNDLWPT [DYNC2LI1] had a protein stability index (treatment: DMSO) of 2.89 ± 0.37 and a protein stability index (treatment: MLN4924 1 uM, 8 h) of 2.82 ± 0.32.

Take PPRGRSEAPDSLNGPLGPSEASIA [SMG5]: the protein stability index worked out at 5.07 ± 0.27 (treatment: DMSO) and 5.12 ± 0.14 (treatment: MLN4924 1 uM, 8 h).

For NQMKERQGLFFDMEAYLPKKNGLY [TMEM120A], the protein stability index is, setting by setting: (treatment: DMSO) 2.65 ± 0.077; (treatment: MLN4924 1 uM, 8 h) 2.73 ± 0.15.

For the sequence TTGSKELDKLLQGGIETGSITEMF [RAD51], the protein stability index runs as follows: (treatment: DMSO) 3.51 ± 0.27; (treatment: MLN4924 1 uM, 8 h) 3.76 ± 0.51.

Regarding PGPGGTMKRHSSRDAAGKPQRPRS [FCHO1], the protein stability index runs as follows: (treatment: DMSO) 5.04 ± 0.16; (treatment: MLN4924 1 uM, 8 h) 5.12 ± 0.17.

On to ASGQGPMCNVKAPLGSPSPRPRRA [ADAMTS4], for which the protein stability index was 4.88 ± 0.29 (treatment: DMSO) and 5.13 ± 0.15 (treatment: MLN4924 1 uM, 8 h).

For the sequence VIEAIAQITVKALPKPPGTPVVTE [PTPRD], the protein stability index was determined as 2.3 ± 0.4 (treatment: DMSO) and 2.16 ± 0.27 (treatment: MLN4924 1 uM, 8 h).

Regarding KKKEGGALRAQRASSNVFSNFEQT [MYL5], the protein stability index runs as follows: (treatment: DMSO) 4.42 ± 0.45; (treatment: MLN4924 1 uM, 8 h) 4.47 ± 0.15.

SGAEGHSHSCYHDTRSGFWYVCRT [TRIM35] displayed a protein stability index (treatment: DMSO) of 2.45 ± 0.17 and a protein stability index (treatment: MLN4924 1 uM, 8 h) of 2.64 ± 0.24.

Sequence RSGAGVALLNDHIYVVGGFDGTAH [KLHL12] yielded a protein stability index (treatment: DMSO) of 2.78 ± 0.43 and a protein stability index (treatment: MLN4924 1 uM, 8 h) of 2.37 ± 0.46.

In the case of ISHQQCWASTSPGTDLPLSEIPRG [TRIM15], the protein stability index (treatment: DMSO) turned out to be 3.51 ± 0.21 and the protein stability index (treatment: MLN4924 1 uM, 8 h) amounted to 3.63 ± 0.53.

GANINAQTEETQETALTLACCGGF [ANKRD17] returned a protein stability index (treatment: DMSO) of 4.63 ± 0.15 and a protein stability index (treatment: MLN4924 1 uM, 8 h) of 4.59 ± 0.31.

Consider LLLAYNSSARIPKCPWMEGGEMSP [INTS4], for which the protein stability index is, setting by setting: (treatment: DMSO) 2.27 ± 0.32; (treatment: MLN4924 1 uM, 8 h) 2.17 ± 0.14.

Turning to ALVAAGGAPEDDEEDDGRGRGLLR [DENND6A], the protein stability index came to 5.5 ± 0.15 (treatment: DMSO) and 5.33 ± 0.14 (treatment: MLN4924 1 uM, 8 h).

As for WGHCEVTMRYINGLDPEPLPLMDL [SPSB4], the protein stability index reads like this: (treatment: DMSO) 2.49 ± 0.26; (treatment: MLN4924 1 uM, 8 h) 2.5 ± 0.4.

As for TSYTRQACLVSCFQQLMVETCSCG [SCNN1D], the protein stability index was determined as 2.48 ± 0.53 (treatment: DMSO) and 2.31 ± 0.27 (treatment: MLN4924 1 uM, 8 h).

As to PRMCRYVRERDRLGNEYPKLHYPE [CDC25A], the protein stability index (treatment: DMSO) was found to be 3.08 ± 0.12 and the protein stability index (treatment: MLN4924 1 uM, 8 h) is 3.15 ± 0.34.

Consider TWHDERFLYMLMEYVPGGELFSYL [PRKX], for which the protein stability index came out at 2.85 ± 0.7 (treatment: DMSO) and 2.75 ± 0.35 (treatment: MLN4924 1 uM, 8 h).

The sequence PNTLYEGGYFKAHIKFPIDYPYSP [UBE2R2] returned a protein stability index (treatment: DMSO) of 2.26 ± 0.13 and a protein stability index (treatment: MLN4924 1 uM, 8 h) of 2.21 ± 0.27.

As to DISERPSVDDIESETGSTGALETR [C2CD2L], the protein stability index runs as follows: (treatment: DMSO) 5.56 ± 0.22; (treatment: MLN4924 1 uM, 8 h) 5.59 ± 0.34.

As for LIWVVGPVLAVVFIICIVIAILLY [PTPRD], the protein stability index reads like this: (treatment: DMSO) 2.35 ± 0.21; (treatment: MLN4924 1 uM, 8 h) 2.15 ± 0.29.

ECKHPSVFQHGDNSFRLLFDVVVI [MCOLN1]: the protein stability index is 2.9 ± 0.48 (treatment: DMSO) and 3.02 ± 0.71 (treatment: MLN4924 1 uM, 8 h).

In turn, TNTGPAGSSASTSPAPLDTCPSSS [DYRK1B] came in with a protein stability index (treatment: DMSO) of 5.24 ± 0.17 and a protein stability index (treatment: MLN4924 1 uM, 8 h) of 5.31 ± 0.18.

As to EGMDFHRFYFENLLAKNSKPIHTT [CAMK2B], the protein stability index reads like this: (treatment: DMSO) 2.52 ± 0.36; (treatment: MLN4924 1 uM, 8 h) 2.49 ± 0.31.

As for LREMLSKKHAAYAWPFYKPVDAEA [BRD3], the protein stability index by setting is: (treatment: DMSO) 2.54 ± 0.26; (treatment: MLN4924 1 uM, 8 h) 2.99 ± 0.16.

Regarding SGGYGQDALGMDPMMEHEMGGHHP [CTNNB1], the protein stability index was determined as 4.65 ± 0.18 (treatment: DMSO) and 4.69 ± 0.23 (treatment: MLN4924 1 uM, 8 h).

On to RYIVNGSHEANKLQDMLDGFIKKF [EIF5], for which the protein stability index reads like this: (treatment: DMSO) 1.98 ± 0.23; (treatment: MLN4924 1 uM, 8 h) 2.17 ± 0.34.

Consider IPPKEFHFRHPKRSVSLSMRKSGA [BNIP3L], for which the protein stability index reads like this: (treatment: DMSO) 3.37 ± 0.34; (treatment: MLN4924 1 uM, 8 h) 3.77 ± 0.34.

NNVVPIHVPPTTENKPKVQCCQNI [RAB11A] came in with a protein stability index (treatment: DMSO) of 4.56 ± 0.15 and a protein stability index (treatment: MLN4924 1 uM, 8 h) of 4.57 ± 0.21.

LIGDFSKGYLFHTVAGKHQDLKYI [CDC25A] gave a protein stability index (treatment: DMSO) of 2.02 ± 0.32 and a protein stability index (treatment: MLN4924 1 uM, 8 h) of 1.81 ± 0.43.

Take REEEKTFWKKYRTFWKEDKAFWKE [CCDC70]: the protein stability index worked out at 2.57 ± 0.2 (treatment: DMSO) and 2.75 ± 0.22 (treatment: MLN4924 1 uM, 8 h).

The values above are taken from the supplement of paper PMC10567573.
